In this data set the target is nucleolin (NCL) (Homo sapiens) (UniProt P19338). Description: SPR. The settings on record: SPR (Biacore X-100, CM5): 10 mM HEPES, 70 mM KCl, pH 7.4, 25 C, analyte 5-500 uM, two-state reaction fit. Background: Surface plasmon resonance follows binding to a sensor surface in real time, without labels.
nucleolin (NCL) (Homo sapiens), sequence (P19338 whole entry): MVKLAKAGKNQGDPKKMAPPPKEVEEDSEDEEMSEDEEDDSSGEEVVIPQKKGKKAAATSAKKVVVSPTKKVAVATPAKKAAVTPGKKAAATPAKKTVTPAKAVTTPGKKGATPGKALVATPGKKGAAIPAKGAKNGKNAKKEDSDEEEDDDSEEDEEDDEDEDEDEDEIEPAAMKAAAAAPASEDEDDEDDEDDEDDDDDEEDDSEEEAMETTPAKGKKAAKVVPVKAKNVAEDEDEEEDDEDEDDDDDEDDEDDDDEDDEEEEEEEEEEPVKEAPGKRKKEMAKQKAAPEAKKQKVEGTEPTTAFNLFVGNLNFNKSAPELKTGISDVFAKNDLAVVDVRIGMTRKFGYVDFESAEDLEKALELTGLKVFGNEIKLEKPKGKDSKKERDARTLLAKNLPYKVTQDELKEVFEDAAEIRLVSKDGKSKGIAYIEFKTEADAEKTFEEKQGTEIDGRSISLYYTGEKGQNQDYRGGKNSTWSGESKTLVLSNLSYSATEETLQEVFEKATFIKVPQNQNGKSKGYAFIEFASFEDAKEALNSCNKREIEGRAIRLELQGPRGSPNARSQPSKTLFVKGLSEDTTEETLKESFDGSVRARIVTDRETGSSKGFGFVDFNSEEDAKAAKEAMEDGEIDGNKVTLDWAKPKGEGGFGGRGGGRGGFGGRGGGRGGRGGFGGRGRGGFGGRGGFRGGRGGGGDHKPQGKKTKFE

Sequence GGGGNNGGGGTGTGGGGTTGGGG [TBAG41S] registered a Kd (N at 5,6 = abasic site mimic (dSpacer, 1',2'-dideoxyribose)) of 41.5 µM.
GGGGTTGGGGNNNGGGGTTGGGG [TBAG4GS] showed a dissociation constant (Kd) (N at 11-13 = abasic site mimic (dSpacer, 1',2'-dideoxyribose)) of 32.2 µM. In other words, the double-digit micromolar range.

In general, Kd refers to a measure of binding affinity in units of concentration. A higher Kd goes with lower affinity.
